Literature values in paper PMC2948943.

Molecular target: UmuD (Escherichia coli) (UniProt P0AG11)

UmuD, sequence (P0AG11 25-139): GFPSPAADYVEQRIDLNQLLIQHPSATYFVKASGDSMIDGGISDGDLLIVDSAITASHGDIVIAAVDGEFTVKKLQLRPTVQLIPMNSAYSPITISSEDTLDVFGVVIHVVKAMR

UmuD (from UniProt P0AG11)
Kd: < 0.01 nM
